Consider one substance from article PMC4476040.

The experiment deals with N-HGbRL, the N-terminal globin domain of HGbRL from Methylacidiphilum infernorum (Methylacidiphilum infernorum). The experiment is described as follows: crystal structure; open, imidazole-bound form; space group C2, two subunits in the asymmetric unit; crystals at 20 °C in 3.5 M 1,6-hexanediol, 0.1 M sodium citrate pH 5.6; 1.94 Å.

Usually stoichiometry N stands for a count of units in the complex or per binding partner. The substance “N-HGbRL, the N-terminal globin domain of HGbRL from Methylacidiphilum infernorum (domain or fragment)” gave a stoichiometry N of 2.
